Assay [1] relates to T1, CCT.
T1 construct: Take 20S mouse testis sucrose gradient fractions enriched in CCT; from tissue; host or cells: mouse testis, 20S sucrose gradient fractions
As to the kind of experiment: Interaction of soluble biotinylated peptides with CCT (native PAGE, streptavidin/Neutravidin-HRP blot). It is filed as binding, mouse.
Procedure: Mouse testis CCT was incubated singly or in combination with peptide 8 (lanes 1 and 2; SEQ ID NO: 18), peptide 8.1 (lane 3; SEQ ID NO: 19), peptide 8.2 (lane 4, SEQ ID NO: 20), peptide 8.3 (lane 5; SEQ ID NO: 21), peptide 8.4 (lane 6; SEQ ID NO: 22), peptide 8.5 (lane 7; SEQ ID NO: 23), or peptide 8.6 (lane 8; SEQ ID NO: 24) as listed in FIG. 11A and 11C. In all lanes, CCT was incubated with peptide on ice for one hour. Samples were electrophoresed on 6% native gels, transferred to nitrocellulose membrane and incubated with Neutravidin-HRP (Pierce) at 2 μg per ml to reveal the distribution of biotinylated peptides. […] The sequences in FIG. 11B (lane 3, residues 5 to 9 of SEQ ID NO: 19; lane 4, residues 5 to 9 of SEQ ID NO: 20; lane 5, residues 5 to 9 of SEQ ID NO: 21; lane 6, residues 5 to 9 of SEQ ID NO: 22; lane 7, residues 5 to 9 of SEQ ID NO: 23; lane 8, SEQ ID NO: 122) are the core sequences of the mutant Actin Site I sequences present in the peptides listed in FIGS. 11A and 11C.
The gel was western blotted and probed with streptavidin-HRP conjugate to determine the position of the biotinylated peptides (FIG. 11).
CCT and peptide corresponding to β-Actin Site I (FIG. 10, peptide 8) were incubated together and the reactions were then electrophoresed on native PAGE gels, western blotted and probed with streptavidin-Horse Radish Peroxidase (HRP). […]

Assay [2] has as its system CCT. As to the kind of experiment: In vitro translation in rabbit reticulocyte lysate, interaction with CCT on native PAGE. As to conditions: kinetics different from folding substrates actin or tubulins. It is filed as binding. Here is the method:
Time courses of interactions of cyclins with CCT were analysed on 6% native polyacrylamide gels (Liou & Willison,EMBO J. 16, 4311–4316, 1997). At the indicated times, 5 μl aliquots of the lysate reactions were added to 7 μl of […] EDTA (ph 8.0) and 4 μl of 4× gel loading buffer and placed on ice. The lanes 1–6 show CCT a at t=0, 5, 10, 20, 30, 60 minutes. Lanes 7–12 show pBSK CY1 1 (mouse D1) at t=0, 5, 10, 20, 30, 60 minutes.
Upon in vitro translation of actin mRNA in rabbit reticulocyte lysate, several truncated forms of ^35S-actin are captured by and accumulate on CCT. This is also the case for α-tubulin (Liou, K. F., et al, Biological Chem. Hoppe-Seler 379, 311–319, 1998). […] Thus, the actin is fragments are not ribosome released nascent chains, but are the consequence of initiation of translation at internal methionine residues in actin, and a comparison of the experimentally determined molecular weights of the truncated forms with the sequential occurrence of the methionines in mouse β-actin supports this interpretation. […] Therefore, no fragments smaller than 29 kDa are produced by internal initiation in the IVT reaction.
The present inventors made fusion proteins which linked β-Actin Site I (residues 31–70) or Site II residues 178–262; 6 of the peptides (Table 2) are located in this segment) containing fragments to the C-terminus of Ha-Ras (residues 1–166). […]

The target in assay [3] is T2, human CCTγ subunit (human 293 cells) (human, UniProt P49368 1-545).
T2 sequence (looked up): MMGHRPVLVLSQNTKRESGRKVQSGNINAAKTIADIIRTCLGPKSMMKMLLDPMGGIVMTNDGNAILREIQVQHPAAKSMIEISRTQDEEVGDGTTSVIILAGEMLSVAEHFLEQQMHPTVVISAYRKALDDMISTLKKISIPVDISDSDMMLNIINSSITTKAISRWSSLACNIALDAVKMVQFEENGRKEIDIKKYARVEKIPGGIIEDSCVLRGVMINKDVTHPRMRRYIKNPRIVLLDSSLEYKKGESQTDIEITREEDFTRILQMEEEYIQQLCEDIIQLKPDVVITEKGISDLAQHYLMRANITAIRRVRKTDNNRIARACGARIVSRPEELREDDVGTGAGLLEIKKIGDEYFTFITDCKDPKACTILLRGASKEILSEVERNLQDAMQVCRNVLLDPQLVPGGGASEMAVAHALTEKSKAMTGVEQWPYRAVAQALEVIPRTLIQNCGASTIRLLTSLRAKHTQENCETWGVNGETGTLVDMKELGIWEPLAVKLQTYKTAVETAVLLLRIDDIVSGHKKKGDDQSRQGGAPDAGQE
In words: superimposable bands, non-denaturing PAGE Western blot of sucrose fractions 13 and 14 of human 293 cells.

For the next assay, the target named is T3, mouse CCTγ subunit (mouse, UniProt P80318 1-545).
T3 construct: Endogenous subunit in mouse testis sucrose fractions
T3 sequence (looked up): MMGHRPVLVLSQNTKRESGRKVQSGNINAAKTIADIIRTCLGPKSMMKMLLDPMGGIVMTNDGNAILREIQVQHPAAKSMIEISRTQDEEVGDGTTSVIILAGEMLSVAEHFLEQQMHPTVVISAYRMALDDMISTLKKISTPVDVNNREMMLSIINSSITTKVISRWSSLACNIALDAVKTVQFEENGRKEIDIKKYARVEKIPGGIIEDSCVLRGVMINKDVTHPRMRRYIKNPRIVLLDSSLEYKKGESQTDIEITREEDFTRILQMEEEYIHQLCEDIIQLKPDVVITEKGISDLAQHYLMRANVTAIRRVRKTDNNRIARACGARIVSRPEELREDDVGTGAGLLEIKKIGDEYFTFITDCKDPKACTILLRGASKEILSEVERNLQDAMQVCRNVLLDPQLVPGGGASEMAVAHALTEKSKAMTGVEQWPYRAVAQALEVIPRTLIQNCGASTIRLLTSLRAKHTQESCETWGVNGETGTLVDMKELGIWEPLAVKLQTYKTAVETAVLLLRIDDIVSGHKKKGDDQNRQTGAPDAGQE
As to the kind of experiment: superimposable bands, 6% non-denaturing PAGE Western blot of sucrose fractions 13 and 14; footnote: not very clear in mouse testis but substantiated in Human 293 cells. On the technique in general: In western blotting, separated proteins are transferred to a membrane and probed.

The target in assay [4] is T4, mouse CCTα subunit (wildtype) (mouse, UniProt P11983 1-556).
T4 construct: in the 23C experiment translated in vitro and incorporated into rabbit CCT; also called CCTa; CCTA
T4 sequence (P11983 whole entry): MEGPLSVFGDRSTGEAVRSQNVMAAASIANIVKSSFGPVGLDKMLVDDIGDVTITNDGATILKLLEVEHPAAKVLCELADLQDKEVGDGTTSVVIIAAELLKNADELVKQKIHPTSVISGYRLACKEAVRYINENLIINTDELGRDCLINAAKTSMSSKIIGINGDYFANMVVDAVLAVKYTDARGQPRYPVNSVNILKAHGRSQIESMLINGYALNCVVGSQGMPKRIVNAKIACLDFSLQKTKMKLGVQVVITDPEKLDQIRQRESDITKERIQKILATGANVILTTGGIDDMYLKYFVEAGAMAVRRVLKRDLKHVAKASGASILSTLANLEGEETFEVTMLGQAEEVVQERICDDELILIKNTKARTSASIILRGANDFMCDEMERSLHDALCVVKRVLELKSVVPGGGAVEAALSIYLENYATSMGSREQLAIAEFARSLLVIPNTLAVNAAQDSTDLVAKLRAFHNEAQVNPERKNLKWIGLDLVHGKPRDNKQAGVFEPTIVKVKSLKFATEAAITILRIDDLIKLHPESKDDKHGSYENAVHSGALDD
In words: superimposable bands, 6% non-denaturing PAGE Western blot of mouse testis sucrose fractions 13 and 14, subunit-specific antibodies.
Procedure: (§1) Sucrose gradient fractions 13 and 14 were resolved in a 6% non-denaturing polyacrylamide gel followed by Western blotting. The CCT subunit—subunit association patterns were determined by probing the blot sequentially with specific antibodies recognising the eight CCT subunits to locate superimposible bands.

Procedure for mouse CCTγ subunit: as §1

For biotin-SGSG-GRPRHQGVMVGMGQK [peptide 8], the “binding of peptide to CCT in free solution (co-migration with CCT complex)” value in the assay with CCT [1] (biotinylated peptide, non denaturing gel) is “co-migrate with the CCT complex”.

As for “biotin-SGSG-AAAAAQGVMVGMGQK [peptide 8.6]”, the “effect of alanine substitution in GRPRH core sequence on binding to CCT” value in the assay on CCT [1] (free solution assay, derivatives of peptide 8) is listed as “abrogation of binding to CCT”.

B1: Cyclin D1: mouse cyclin D1 translated in rabbit reticulocyte lysate (protein)
chain: MEHQLLCCEVETIRRAYPDTNLLNDRVLRAMLKTEETCAPSVSYFKCVQKEIVPSMRKIVATWMLEVCEEQKCEEEVFPLAMNYLDRFLSLEPLKKSRLQLLGATCMFVASKMKETIPLTAEKLCIYTDNSIRPEELLQMELLLVNKLKWNLAAMTPHDFIEHFLSKMPEADENKQTIRKHAQTFVALCATDVKFISNPPSMVAAGSVVAAMQGLNLGSPNNFLSCYRTTHFLSRVIKCDPDCLRACQEQIEALLESSLRQAQQNVDPKATEEEGEVEEEAGLACTPTDVRDVDI
As for B1, the “binding to CCT (binding partner)” value with CCT [2] is “specific binding partners for CCT”.

B2: Cyclin D2: cyclin D2, CCT binding partner (protein, UniProt P30279 1-289, looked up)
G1/S-specific cyclin-D2: MELLCHEVDPVRRAVRDRNLLRDDRVLQNLLTIEERYLPQCSYFKCVQKDIQPYMRRMVATWMLEVCEEQKCEEEVFPLAMNYLDRFLAGVPTPKSHLQLLGAVCMFLASKLKETSPLTAEKLCIYTDNSIKPQELLEWELVVLGKLKWNLAAVTPHDFIEHILRKLPQQREKLSLIRKHAQTFIALCATDFKFAMYPPSMIATGSVGAAICGLQQDEEVSSLTCDALTELLAKITNTDVDCLKACQEQIEAVLLNSLQQYRQDQRDGSKSEDELDQASTPTDVRDIDL
For the molecule B2, the “binding to CCT (binding partner)” value in the assay on CCT [2] is reported as “specific binding partners for CCT”.

B3: human CCTβ subunit (human 293 cells) (other, UniProt P78371 2-535, looked up)
chain: ASLSLAPVNIFKAGADEERAETARLTSFIGAIAIGDLVKSTLGPKGMDKILLSSGRDASLMVTNDGATILKNIGVDNPAAKVLVDMSRVQDDEVGDGTTSVTVLAAELLREAESLIAKKIHPQTIIAGWREATKAAREALLSSAVDHGSDEVKFRQDLMNIAGTTLSSKLLTHHKDHFTKLAVEAVLRLKGSGNLEAIHIIKKLGGSLADSYLDEGFLLDKKIGVNQPKRIENAKILIANTGMDTDKIKIFGSRVRVDSTAKVAEIEHAEKEKMKEKVERILKHGINCFINRQLIYNYPEQLFGAAGVMAIEHADFAGVERLALVTGGEIASTFDHPELVKLGSCKLIEEVMIGEDKLIHFSGVALGEACTIVLRGATQQILDEAERSLHDALCVLAQTVKDSRTVYGGGCSEMLMAHAVTQLANRTPGKEAVAMESYAKALRMLPTIIADNAGYDSADLVAQLRAAHSEGNTTAGLDMREGTIGDMAILGITESFQVKRQVLLSAAEAAEVILRVDNIIKAAPRKRVPDHHPC
On to B3, for which, in assay [3], the binding result was “binds”.

B4: mouse CCTβ subunit (other, UniProt P80314 2-535, looked up)
chain: ASLSLAPVNIFKAGADEERAETARLSSFIGAIAIGDLVKSTLGPKGMDKILLSSGRDAALMVTNDGATILKNIGVDNPAAKVLVDMSRVQDDEVGDGTTSVTVLAAELLREAESLIAKKIHPQTIISGWREATKAAREALLSSAVDHGSDEARFWQDLMNIAGTTLSSKLLTHHKDHFTKLAVEAVLRLKGSGNLEAIHVIKKLGGSLADSYLDEGFLLDKKIGVNQPKRIENAKILIANTGMDTDKIKIFGSRVRVDSTAKVAEIEHAEKEKMKEKVERILKHGINCFINRQLIYNYPEQLFGAAGVMAIEHADFAGVERLALVTGGEIASTFDHPELVKLGSCKLIEEVMIGEDKLIHFSGVALGEACTIVLRGATQQILDEAERSLHDALCVLAQTVKDPRTVYGGGCSEMLMAHAVTQLANRTPGKEAVAMESFAKALRMLPTIIADNAGYDSADLVAQLRAAHSEGHITAGLDMKEGTIGDMAVLGITESFQVKRQVLLSAAEAAEVILRVDNIIKAAPRKRVPDHHPC
notes: Endogenous subunit in mouse testis sucrose fractions
As to B4, in the assay with mouse CCTγ subunit, the binding result is recorded as “binds”.

B5: mouse CCTε subunit (other, UniProt P80316 2-541, looked up)
chain: ASVGTLAFDEYGRPFLIIKDQDRKSRLMGLEALKSHIMAAKAVANTMRTSLGPNGLDKMMVDKDGDVTITNDGATILSMMDVDHQIAKLMVELSKSQDDEIGDGTTGVVVLAGALLEEAEQLLDRGIHPIRIADGYEQAARIAIQHLDKISDKVLVDINNPEPLIQTAKTTLGSKVINSCHRQMAEIAVNAVLTVADMERRDVDFELIKVEGKVGGRLEDTKLIKGVIVDKDFSHPQMPKKVVDAKIAILTCPFEPPKPKTKHKLDVMSVEDYKALQKYEKEKFEEMIKQIKETGANLAICQWGFDDEANHLLLQNGLPAVRWVGGPEIELIAIATGGRIVPRFSELTSEKLGFAGVVQEISFGTTKDKMLVIEKCKNSRAVTIFIRGGNKMIIEEAKRSLHDALCVIRNLIRDNRVVYGGGAAEISCALAVSQEADKCPTLEQYAMRAFADALEVIPMALSENSGMNPIQTMTEVRARQVKESNPALGIDCLHKGSNDMQYQHVIETLIGKKQQISLATQMVRMILKIDDIRKPGESEE
notes: as for B4
As to B5, the binding result in assay [4] is reported as “binds”.

B6: mouse CCTη subunit (other, UniProt P80313 1-544, looked up)
chain: MMPTPVILLKEGTDSSQGIPQLVSNISACQVIAEAVRTTLGPRGMDKLIVDGRGKATISNDGATILKLLDVVHPAAKTLVDIAKSQDAEVGDGTTSVTLLAAEFLKQVKPYVEEGLHPQIIIRAFRTATQLAVNKIKEIAVTVKKQDKVEQRKMLEKCAMTALSSKLISQQKVFFAKMVVDAVMMLDELLQLKMIGIKKVQGGALEESQLVAGVAFKKTFSYAGFEMQPKKYKNPKIALLNVELELKAEKDNAEIRVHTVEDYQAIVDAEWNILYDKLEKIHQSGAKVILSKLPIGDVATQYFADRDMFCAGRVPEEDLKRTMMACGGSIQTSVNALVPDVLGHCQVFEETQIGGERYNFFTGCPKAKTCTIILRGGAEQFMEETERSLHDAIMIVRRAIKNDSVVAGGGAIEMELSKYLRDYSRTIPGKQQLLIGAYAKALEIIPRQLCDNAGFDATNILNKLRARHAQGGMWYGVDINNENIADNFQAFVWEPAMVRINALTAASEAACLIVSVDETIKNPRSTVDPPAPSAGRGRGQARFH
notes: as for B4
On to B6, for which the binding result in assay [4] was “binds”.

These data come from patent publication US7018791B1, “Binding complexes” (Institute of Cancer Research: Royal Cancer Hospital, priority 1997, dated 2006).
